Patent publication US8409836B2, “Treatment of cellulosic material and enzymes useful therein” (Roal Oy, priority 2005, dated 2013)
Several values for one entry are separate records, joined by “and”; a condition that tells them apart may be missing. Equal values may be shown once.

What was measured:
[1] = Xylanase activity on birch xylan; type: biochemical
Procedure, shortened: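 Xylanase activity measured on birch glucuronoxylan by the IUPAC 1987 standard procedure, using enzyme purified from Acremonium thermophilum ALKO4245 or Thermoascus aurantiacus ALKO4242 culture supernatant. Protein determined by dye-binding assay against a bovine serum albumin standard.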

[2] = Temperature optimum of heterologously produced xylanase; type: biochemical; conditions: pH 5.3, 60 min reaction
Experimental: (§1) Thermoascus XYN—30/Xyn10A was produced in T. reesei and the pH optimum of the heterologously produced protein was determined in the universal McIlvaine's buffer within a pH range of 3.0-8.0 using birch xylan as substrate (FIG. 8A). The optimal pH was determined to be 4.5. The temperature optimum for the enzymatic activity of XYN—30 was determined to be 75° C. (FIG. 8B).

[3] = pH optimum of heterologously produced xylanase; type: biochemical; conditions: McIlvaine's buffer, pH range 3.0-8.0, birch xylan
Experimental: as §1

[4] = Isoelectric focusing (PhastSystem), pI of purified protein; type: physicochemical; conditions: IEF gel
Experimental: The sample was dissolved in water and applied to a Superdex 75 HR 10/30 gel filtration column equilibrated with 20 mM sodium phosphate pH 6.0, containing 0.15 M NaCl. Fractions were collected and those containing endoglucanase activity were combined. The protein eluate was judged to be pure by SDS-polyacrylamide gel electrophoresis and the molecular mass was evaluated on the basis of molecular mass standards (prestained SDS-PAGE standards, Broad Range, Bio-Rad) to be 54 kDa. The pI of the purified protein, designated as Ct EG—54 was determined with PhastSystem (Pharmacia) to be ca 5.5.
The sample was applied to a Sephacryl S-100 HR 26/60 gel filtration column equilibrated with 50 mM sodium acetate buffer pH 5.0, containing 0.05 M NaCl. The protein fraction containing endoglucanase activity was eluted from the column with a retention volume corresponding to a molecular weight of 16 kDa. Collected fractions were combined, concentrated and gel filtration was repeated. The protein eluate was judged to be pure by SDS-polyacryl amide gel electrophoresis and the molecular weight was evaluated to be 28 kDa. The pI of the purified protein, designated as Ta EG—28, was determined in an IEF gel (PhastSystem, Pharmacia) to be about 3.5. The specific activity of Ta EG—28 at 50° C. was determined to be 4290 nkat/mg (procedure of IUPAC 1987, using CMC as substrate).
The active material from the anion exchange chromatography was applied to a Sephacryl S-300 HR 26/60 column equilibrated with 20 mM sodium phosphate pH 6.5, containing 0.15 M NaCl. The protein with β-glucosidase activity was eluted with a retention volume corresponding to a molecular weight of 243 kDa. The protein was judged to be pure by SDS-polyacrylamide gel electrophoresis and the molecular weight was evaluated to be 101 kDa. The pI of the purified protein, designated as At βG—101, was determined in an IEF gel (PhastSystem, Pharmacia) to be in the area of 5.6-4.9. The specific activity of At βG—101 at 50° C. was determined to be 1100 nkat/mg (using 4-nitrophenyl-β-D-glucopyranoside as substrate, Bailey and Linko, 1990).
The active material from the cation exchange chromatography was applied to a Sephacryl S-300 HR 26/60 column equilibrated with 20 mM sodium phosphate pH 7.0, containing 0.15 M NaCl. The protein with β-glucosidase activity was eluted with a retention volume corresponding to a molecular weight of 294 kDa. […] The protein was judged to be pure by SDS-polyacrylamide gel electrophoresis and the molecular weight was evaluated to be 81 kDa, representing most likely the monomeric form of the protein. […] The specific activity of the purified protein, designated as Ta βG—81, at 50° C. was determined to be 600 nkat/mg using 4-nitrophenyl-β-D-glucopyranoside as substrate (Bailey and Linko, 1990). […]

[5] = tested on: Trichoderma-strains (A47 and Rut-C30); experiment: Cellulase induction on βG_81 pretreated Nutriose in shake flask cultivation; type: cell-based; conditions: 7 days shake flask cultivation
Experimental: A high concentration starch hydrolysate mixture (Nutriose 74/968, Roquette) was treated with Thermoascus aurantiacus βG—81/Cel3A enriched enzyme preparation produced as described in Example 21 to produce a sugar mixture containing appreciable amounts of cellulase inducer (sophorose) to overcome the glucose repression.
The Ta βG—81/Cel3A enriched enzyme preparation was added to a 70% (w/w) Nutriose solution to a final concentration of 1 g total protein/liter. The container of the mixture was incubated in a water bath at 65° C. for 3 days with constant stirring and used as a carbon source in a shake flask medium for two different Trichoderma-strains (A47 and Rut-C30). The effect of the enzyme treatment was measured as an endoglucanase activity formed during a 7 days shake flask cultivation. As a reference cultivations were performed under the same conditions with untreated Nutriose as a carbon source.

[6] = Thermal stability of purified β-glucosidase; type: biochemical; conditions: 0.1 mg/ml BSA, pH 5.0, 60 min, 4-nitrophenyl-β-D-glucopyranoside
Experimental: (§2) Thermal stability of the purified β-glucosidase was determined at different temperatures. The reaction was performed in the presence of 0.1 mg/ml BSA at pH 5.0 for 60 min using 4-nitrophenyl-β-D-glucopyranoside as substrate. A. thermophilum βG—101 was stable up to 70° C. The Aspergillus reference enzyme (Novozym 188) retained 100% of activity up to 60°.
as §2, with “T. aurantiacus βG—81” for “A. thermophilum βG—101”, “75°” for “70°”, “60° C.” for “60°.”

[7] = β-glucosidase activity on 4-nitrophenyl-β-D-glucopyranoside; type: biochemical
Experimental: (§3) Acremonium Thermophilum ALKO4245 was grown as described in Example 1. The pure β-glucosidase was obtained by sequential purification with hydrophobic interaction and anion exchange chromatography followed by gel filtration. The β-glucosidase activity of the fractions collected during purification was determined using 4-nitrophenyl-β-D-glucopyranoside as substrate (Bailey and Linko, 1990). Protein content was measured by BioRad Assay Kit (Bio-Rad Laboratories) using bovine serum albumine as standard.
as §3, with “Thermoascus aurantiacus ALKO4242” for “Acremonium Thermophilum ALKO4245”, “interaction, anion” for “interaction”, “cation” for “anion”

[8] = Temperature optimum of heterologously produced β-glucosidases; type: biochemical; conditions: temperature range 50-85° C., 60 min
Experimental: (§4) The pH optimum of the heterologously produced β-glucosidases was determined in the universal McIlvaine's buffer within a pH range of 3.0-8.0 using 4-nitrophenyl-β-D-glucopyranoside as substrate. The pH optima for the Acremonium βG—101, Chaetomium βG—76, and Thermoascus βG—81 are pH 4.5, 5.5, and 4.5, respectively (FIG. 7 A). The optimal temperature for enzymatic activity of these β-glucosidases was determined at the temperature range of 50-85° C. as described above. The highest activity of the enzymes was determined to be at 70° C., 65° C., and 75° C. for the Acremonium βG—101/Cel3A, Chaetomium βG—76/Cel3A, and Thermoascus βG—81/Cel3A, respectively (FIG. 7 B).

[9] = pH optimum of heterologously produced β-glucosidases; type: biochemical; conditions: McIlvaine's buffer, pH range 3.0-8.0, 4-nitrophenyl-β-D-glucopyranoside
Experimental: as §4

Row | Molecule | Xylanase activity of the preparation ([1]; assayed according to Bailey et al., 1992) | Specific activity on birch xylan ([1]; purified xylanase, 50° C., procedure of IUPAC 1987) | Temperature optimum [2] | pH optimum [3] | pI of the purified protein [4] | Endoglucanase activity formed on pretreated Nutriose versus untreated Nutriose [5] | Thermal stability: temperature up to which stable / 100% of activity retained [6] | β-glucosidase activity of the preparation ([7]; according to Bailey and Linko, 1990, listed as Ta βG—81/Cel3A) | Specific activity on 4-nitrophenyl-β-D-glucopyranoside ([7]; purified β-glucosidase, 50° C.) | Temperature of highest activity [8] | pH optimum [9]
1 | Ta XYN_30: xylanase of Thermoascus aurantiacus ALKO4242, gene Ta xyn10A, amino acid SEQ ID NO: 18 | 132 000 nkat/ml | 4800 nkat/mg | 75 °C | 4.5 | ca. 6.8 |  |  |  |  |  | 
2 | Ta βG_81: beta-glucosidase of Thermoascus aurantiacus ALKO4242, gene Ta cel3A, amino acid SEQ ID NO: 22 (protein) MRLGWLELAVAAAATVASAKDDLAYSPPFYPSPWMNGNGEWAEAYRRAVDFVSQLTLAEKVNLTTGVGWMQEKCVGETGSIPRLGFRGLCLQDSPLGVRFADYVSAFPAGVNVAATWDKNLAYLRGKAMGEEHRGKGVDVQLGPVAGPLGRHPDGGRNWEGFSPDPVLTGVLMAETIKGIQDAGVIACAKHFIGNEMEHFRQAGEAVGYGFDITESVSSNIDDKTLHELYLWPFADAVRAGVGSFMCSYNQVNNSYSCSNSYLLNKLLKSELDFQGFVMSDWGAHHSGVGAALAGLDMSMPGDTAFGTGKSFWGTNLTIAVLNGTVPEWRVDDMAVRIMAAFYKVGRDRYQVPVNFDSWTKDEYGYEHALVGQNYVKVNDKVDVRADHADIIRQIGSASVVLLKNDGGLPLTGYEKFTGVFGEDAGSNRWGADGCSDRGCDNGTLAMGWGSGTADFPYLVTPEQAIQNEILSKGKGLDSVSIVFVNADSGEGYINVDGNEGDRKNLTLWKGGEEVIKTVAANCNNTIVVMHTVGPVLIDEWYDNPNVTAIVWAGLPGQESGNSLVDVLYGRVSPGGKTPFTWGKTRESYGAPLLTKPNNGKGAPQDDFTEGVFIDYRRFDKYNETPIYEFGFGLSYTTFEYSNIYVQPLNARPYTPASGSTKAAPTFGNISTDYADYLYPEDIHKVPLYIYPWLNTTDPEEVLRRSRLTEMKAEDYIPSGATDGSPQPILPAGGAPGGNPGLYDEMYRVSAIITNTGNVVGDEVPQLYVSLGGPDDPKVVLRNFDRITLHPGQQTMWTTTLTRRDISNWDPASQNWVVTKYPKTVYIGSSSRKLHLQAPLPPY |  |  |  |  | > 5.85 and 4.55 | More than two-fold increase | up to 75 °C | 6270 nkat/ml and 11500 nkat/ml | 600 nkat/mg | 75 °C | 4.5
